From paper PMC8630636, “Fis Connects Two Sensory Pathways, Quorum Sensing and Surface Sensing, to Control Motility in Vibrio parahaemolyticus”

T1: Fis (Vibrio parahaemolyticus RIMD2210633) (UniProt P64128)
T1 sequence: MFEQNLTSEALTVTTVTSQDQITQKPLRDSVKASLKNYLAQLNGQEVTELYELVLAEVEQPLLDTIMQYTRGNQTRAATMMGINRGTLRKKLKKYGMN

T2: Fis (Vibrio parahaemolyticus RIMD2210633, UniProt P64128 1-98)
T2 sequence: T1 sequence

B1: ParaB_mut (probe 3) (dsDNA)
DNA 1: TTTTTATCACTCCTCGTAGAAACCCTATTTATGGGATAACCCAC
DNA 2: GTGGGTTATCCCATAAATAGGGTTTCTACGAGGAGTGATAAAAA
B2: Qrr3coding_mut (dsDNA)
DNA 1: CCTTCTTAAGCCGAGAGTATCTTAGATAAATGACGTTGTTAGTGAA
DNA 2: TTCACTAACAACGTCATTTATCTAAGATACTCTCGGCTTAAGAAGG
B3: ParaB_WT (probe 3) (dsDNA)
DNA 1: TTTTTGTCCATAAACTTAGCAACCCTATTTATGGGATAACCCAC
DNA 2: GTGGGTTATCCCATAAATAGGGTTGCTAAGTTTATGGACAAAAA

The molecules below were run against T1, Fis (Vibrio parahaemolyticus RIMD2210633) (assay: EMSA). Details: 10 mM Tris, 150 mM KCl, 0.1 mM DTT, 0.1 mM EDTA, 5% PEG, pH 7.4, 20 min at room temperature; 30 ng DNA; 6% native gel in 1x TAE at 4 C.

Row | Molecule | binding
1 | AATCTACTTGTTGTTATAGCCAGAGCTGGTGGGTTATCCCATAAATAGGGTTGCTAAGTTTATGGACAAAAACGTCACTGGGTGTTTTTTGTGTCCTTTTTAACACCTTTATATATTGCTCAAAAATTAAGTGTTTTCGATCATGATTAACG (double strand) [ParaB probe 2] | binds
2 | AGCCTGACGTTGGTAAGGTGCGCTAAAACACCAAAATATGCCGAGTTAAAAGATACCAAAAATCGATGTACTTCCTCTGTAGGAATAGTCCTATTTACATAGCAGGAAACACCTAAAGCAGCGCTTTATTAACGGCTTAATCAACACGTCACATTCCTAAAATGAATTAAATATTTTCAGCTTTTTAGTCGCCTTGTCTTATAGGGAAACACTAGATGTTTTCGAGAGGAAGGCGGAACACATA (double strand) [PlafB] | binds
3 | CATAGGTTCACCTTTAAGAATTATTGTTTGTGTTATGGTTCACATTTATTTCAGTTACCGGTAACATGTTACCGATAACATGAATAAGATAAACCCATATTTTAAAGTGAATTCAAAAATTGAGATCACGCGCAAATT (double strand) [PgntK probe 1] | binds
4 | CCATCCACTGGTAGAGGTGAGTGTTCGCTGTACATATTTGTGCATCCTTGACCATTTGTTAGTGATAAAAATCACAGCGGAAAAATGTAGCAATTTTGTCCATTCATTTAGCTACAGAGGCTATGAAGCAGCTCTCAA (double strand) [ParaB probe 1] | binds
5 | CCATTTGAAAAGGGATTGAGTGTTGTTGATAGAGTTTTTTTTACTGGAGATTTGATACGTTAACTGGATTTTTGTAACATTAAAATGGAAGTGTGATTTTGCTCAATAGCACAAAAGTCCAGTCCGGTGT (double strand) [VPA1424 regulatory region (negative control)] | binds more weakly
6 | CTTAATAATAGTTTTATCTATAAACAAACAGTGAGCTTTGTTATAAATTCATTAAAAATTTAACTTTGTATTAATTAGAAAATTCAGCGTCATATTTGTTCAACTGCGACTATTCTTTTTATAACCAAGTAATCTC (double strand) [PscrABC probe 2] | binds
7 | GAGCTCTCCTAGGTACCAACCGTGAAATCCATTTACTGAGGTATTTTTCCTCATTAATTAGCAGTATAGGGTAAAAATATGAAAGCTAATGGATAATCATAAAGTAGTAGTTGGTTTTTTGCTGAGAAAGTGATTAGTAGCAATGTAACAAGTGGCATATTTGCATGCTATTGCATTTTGCAAATGCAATTTGCGAAAGTGCTGGTTAATAATGCGTCGATATGCACCTGGATCTATTAAAAAACGGCTTTTTTAAAGTTGGCACGCATCGTGCTTTATCTAGAG (double strand) [Pqrr4] | binds
8 | GCGTTTATCATAAAAATAGTCAATTTAATGAATATTTTAATATGTATTCAGTTGTTTATTGGTTGGAGGCGAAACTGTTGCTTATGTCATCAAATAAGCTAAAAAAGTGGAACTAAAGTCACTTAATGGCAGAGTAAAAAATTAAAG (double strand) [PscrABC probe 1] | binds
9 | TATGTTAAGTTTCATAAAATGGCTTGATGTTTAAATGAACAGTTAATTTTTAGACCATATATAGCGAGATCTAAAGTAGTTCAAACAAATGTACGGTCTAACTCTTAGCTGCGAGAACAAACCACTTGGATATACGCTC (double strand) [PscrABC probe 3] | binds
10 | TCACGCGAATACGCACTTTAATACGTATGTCTAATGTTTATACGCGACCACTTTCGCCTAAAAGTTTAGGTATAGTTGATAATTAGTCGACTTAAGCAATCTATGTACCAAAATCAACGCCAAAATAATGACTCAAAGCTAAATAACAGCACAATCCATTG (double strand) [PflhA] | binds

Each molecule was assayed against T2, Fis (assay: EMSA; 10 mM Tris, 150 mM KCl, 0.1 mM DTT, 0.1 mM EDTA, 5% PEG, pH 7.4, 20 min at room temperature; 30 ng DNA; 6% native gel in 1x TAE at 4 C). Details: protein: recombinant; tags: 6xHis-MBP fusion (pMAL-c5x) removed by TEV cleavage; chain copies: 2; blunt.

Row | Molecule | binding result
11 | B1 | no binding
12 | B2 | no binding
13 | B3 | binds
